From patent publication US20250115641A1 (H LEE MOFFITT CANCER CENTER AND RESEARCH INSTITUTE, published 2025)
Bridge positions count the residues as written; N and C are the ends. Square brackets hold non-standard residues; d marks the D form. Primed or numbered codes have the meaning given here. S5 = C=CCCC[C@](C)(N)C(=O)O; Nle = CCCC[C@H](N)C(=O)O; FITC′ = fluorescein; βAla = NCCC(=O)O

Legend:
[1] = target: T1, human NLRP3^PYD (residues 3-110, C-terminal 6 x histidine) (human, UniProt Q96P20 3-110); assay: fluorescence polarization binding assay, FITC-labelled peptide
T1 construct: range 3-110; also called His6-NLRP3^PYD
T1 sequence (Q96P20 other isoform, or with tags, fused parts or gaps limits assumed): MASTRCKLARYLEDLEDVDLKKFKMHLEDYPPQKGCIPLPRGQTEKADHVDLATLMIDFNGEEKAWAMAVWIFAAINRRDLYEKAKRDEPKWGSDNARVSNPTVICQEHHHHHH

[2] = target: T2, human N-terminally GST tagged ASC^PYD (human, UniProt Q9ULZ3 1-106); assay: as above
T2 construct: range 1-106; Expressed in E. coli from pGEX-4T1; also called GST-ASC^PYD; not shown: N-terminal GST (glutathione S-transferase) tag of the pGEX-4T1 vector
T2 sequence (Q9ULZ3 1-106): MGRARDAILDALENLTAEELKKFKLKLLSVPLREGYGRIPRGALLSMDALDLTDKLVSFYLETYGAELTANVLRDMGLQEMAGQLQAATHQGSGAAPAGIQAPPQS

Binder: {FITC′}-[βAla]Q[S5]LRK[S5]QWKLWTA-NH2 (staple 3-7, also called peptide 63) [fSAH-POP1-12]
- fold increase of binding affinity against fSAH-POP1-10 [1]: 10 fold

Binder: {FITC′}-[βAla]Q[S5]LRR[S5]QWKLWTS-NH2 (staple 3-7, also called peptide 67) [fSAH-POP1-16]
- binding result [2]: binds

Binder: {FITC′}-[βAla]EELKKFK[Nle]KLGTV-NH2 (also called peptide 55) [fPOP1-H2]
- binding result [1]: binds

B1: fSAH-POP1-6 (peptide)
peptide: XQXLKKXKXKLWTA
modifications: N-terminal fluorescein (FITC) on β-alanine; S5 = (S)-2-(4-pentenyl)alanine residues covalently linked (hydrocarbon staple); made on Rink amide resin
notes: also called peptide 57
- fold change of KD against fSAH-POP1-5 (lower) [1]: 2 fold

B2: fSAH-POP1-4 (peptide)
peptide: AEXLKKXKXKLGTV
modifications: N-terminal fluorescein (FITC) on β-alanine; S5 = (S)-2-(4-pentenyl)alanine residues covalently linked (hydrocarbon staple); made on Rink amide resin
notes: FITC-labelled stapled peptide; also called peptide 54
- binding result [1]: binds

B3: fSAH-POP1-5 (peptide)
peptide: AQXLKKXKXKLGTA
modifications: N-terminal fluorescein (FITC) on β-alanine; S5 = (S)-2-(4-pentenyl)alanine residues covalently linked (hydrocarbon staple); made on Rink amide resin
notes: also called peptide 56
- fold change of KD against fSAH-POP1-4 (higher) [1]: 1.5 fold
